Tested on: peptide library, one residue held at a place counted from the S/T acceptor
Experiment: relative phosphorylation of the sub-library (ratio to the mean residue at this position); human; higher = residue favoured
Method in brief: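 Purified recombinant kinases (human or orthologue constructs) were incubated in 384-well plates with biotinylated degenerate peptide sub-libraries, each fixing one residue at one position around a central Ser/Thr. Peptides were at 50 μM, with 50 μM ATP spiked with γ-32P-ATP, for 90 min under kinase-specific conditions. Spots on streptavidin membranes were phosphorimaged and quantified by densitometry. Relative sub-library phosphorylation is a ratio to the mean residue at that position.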

Sequence of MAP3K10, construct: aa1-449 (Q02779 1-449, looked up): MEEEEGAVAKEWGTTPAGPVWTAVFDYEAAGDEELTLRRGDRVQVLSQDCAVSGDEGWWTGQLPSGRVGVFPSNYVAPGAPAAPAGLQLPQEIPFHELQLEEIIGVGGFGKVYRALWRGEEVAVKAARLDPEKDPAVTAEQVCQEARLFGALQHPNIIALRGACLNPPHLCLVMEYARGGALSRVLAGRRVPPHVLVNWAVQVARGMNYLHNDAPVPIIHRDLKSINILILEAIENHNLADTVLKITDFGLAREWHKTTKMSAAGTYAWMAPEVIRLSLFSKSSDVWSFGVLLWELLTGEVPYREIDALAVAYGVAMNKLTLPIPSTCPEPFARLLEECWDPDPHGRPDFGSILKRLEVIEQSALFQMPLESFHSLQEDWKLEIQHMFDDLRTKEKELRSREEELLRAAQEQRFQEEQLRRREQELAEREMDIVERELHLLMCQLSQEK
Sequence of IKBKE, construct: Full length (Q14164 whole entry, looked up): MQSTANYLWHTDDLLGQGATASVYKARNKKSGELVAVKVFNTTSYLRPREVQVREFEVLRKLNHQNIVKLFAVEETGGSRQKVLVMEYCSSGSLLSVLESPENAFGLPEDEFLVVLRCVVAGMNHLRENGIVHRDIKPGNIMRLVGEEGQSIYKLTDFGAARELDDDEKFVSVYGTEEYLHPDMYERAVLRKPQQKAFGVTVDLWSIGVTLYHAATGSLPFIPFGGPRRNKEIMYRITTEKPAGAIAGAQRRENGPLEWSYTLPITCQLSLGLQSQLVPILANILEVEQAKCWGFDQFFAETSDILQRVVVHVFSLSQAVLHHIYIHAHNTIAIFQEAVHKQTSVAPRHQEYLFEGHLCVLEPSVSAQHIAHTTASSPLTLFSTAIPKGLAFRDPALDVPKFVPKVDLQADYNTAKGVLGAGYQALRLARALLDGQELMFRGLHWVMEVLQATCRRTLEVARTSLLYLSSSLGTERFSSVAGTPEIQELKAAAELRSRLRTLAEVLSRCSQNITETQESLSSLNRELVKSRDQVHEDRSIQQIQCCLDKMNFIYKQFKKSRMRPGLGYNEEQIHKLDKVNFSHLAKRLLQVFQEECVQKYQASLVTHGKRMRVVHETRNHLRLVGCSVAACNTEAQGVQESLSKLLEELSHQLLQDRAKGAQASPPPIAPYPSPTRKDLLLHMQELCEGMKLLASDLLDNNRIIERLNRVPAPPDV

IKBKE, construct: Full length (from UniProt Q14164)
relative phosphorylation
Details | at +1 | at +2 | at +3 | at +4 | at -1 | at -2 | at -3 | at -4 | at -5
A fixed | 0.346 | 1.18 | 0.935 | 0.899 | 0.911 | 0.889 | 1.11 | 1.12 | 1.26
D fixed | 0.306 | 1.07 | 0.898 | 0.987 | 1.04 | 1.25 | 1.24 | 1.35 | 1.34
E fixed | 0.22 | 0.933 | 0.928 | 1.01 | 0.97 | 0.821 | 1.2 | 1.23 | 1.27
F fixed | 1.6 | 0.967 | 1.22 | 1.12 | 1.03 | 1.65 | 0.755 | 0.829 | 0.992
G fixed | 0.423 | 0.811 | 0.961 | 0.879 | 0.677 | 0.857 | 1.42 | 1.44 | 1.21
H fixed | 0.688 | 1.14 | 1.24 | 1.15 | 1.11 | 0.99 | 1.09 | 1.08 | 1.14
I fixed | 2.51 | 1.06 | 0.853 | 0.964 | 0.899 | 0.528 | 0.632 | 0.796 | 0.742
K fixed | 0.219 | 0.714 | 0.471 | 0.672 | 0.849 | 0.563 | 0.819 | 0.88 | 0.927
L fixed | 3.41 | 1.08 | 0.887 | 0.994 | 1.18 | 1.11 | 0.743 | 0.94 | 0.753
M fixed | 3.08 | 1.18 | 1.11 | 1.03 | 1.28 | 1.65 | 1.07 | 0.928 | 0.808
N fixed | 0.323 | 1.04 | 0.9 | 0.854 | 0.916 | 0.916 | 1.12 | 1.01 | 1.06
P fixed | 0.178 | 0.893 | 1.14 | 1.1 | 1.12 | 1.13 | 1.3 | 1.06 | 0.959
Q fixed | 0.292 | 1.07 | 0.835 | 0.839 | 0.89 | 0.796 | 1.05 | 0.942 | 0.827
R fixed | 0.248 | 0.931 | 0.626 | 0.721 | 0.955 | 0.62 | 0.968 | 0.845 | 0.965
V fixed | 1.04 | 1.22 | 0.936 | 0.926 | 0.986 | 0.544 | 0.672 | 0.665 | 0.861
W fixed | 1 | 0.876 | 1.33 | 1.65 | 0.94 | 0.934 | 0.826 | 0.955 | 0.922
Y fixed | 1.12 | 0.831 | 1.74 | 1.21 | 1.24 | 1.76 | 0.995 | 0.918 | 0.974
pThr fixed | 0.471 | 1.03 | 0.717 | 1.04 | 0.722 | 0.757 | 1.13 | 1.18 | 1
pTyr fixed | 0.448 | 0.8 | 1.07 | 0.934 | 1.18 | 1.29 | 1.67 | 1.13 | 1.03

MAP3K10, construct: aa1-449 (from UniProt Q02779)
relative phosphorylation
Details | at +1 | at +2 | at +3 | at +4 | at -1 | at -2 | at -3 | at -4 | at -5
A fixed | 0.988 | 0.921 | 1.06 | 1.24 | 0.881 | 0.969 | 1.12 | 1.23 | 1.48
D fixed | 0.28 | 0.398 | 0.506 | 0.72 | 0.775 | 0.594 | 0.888 | 1.11 | 1.11
E fixed | 0.404 | 0.392 | 0.439 | 0.573 | 0.65 | 0.584 | 0.827 | 0.909 | 0.764
F fixed | 1.53 | 0.602 | 1.19 | 0.779 | 1.05 | 1.44 | 0.935 | 0.693 | 0.878
G fixed | 0.999 | 0.749 | 1.42 | 1.43 | 0.603 | 0.911 | 1.28 | 1.43 | 1.39
H fixed | 1.65 | 2.11 | 1.34 | 1.07 | 1.39 | 1.2 | 1.19 | 1.11 | 1.17
I fixed | 0.774 | 0.445 | 0.773 | 0.705 | 0.65 | 0.505 | 0.484 | 0.541 | 0.596
K fixed | 1.12 | 1.84 | 1.01 | 1.44 | 1.22 | 0.514 | 0.964 | 1.08 | 0.953
L fixed | 0.764 | 0.561 | 0.897 | 0.75 | 0.973 | 0.789 | 0.731 | 0.698 | 0.712
M fixed | 1.33 | 0.634 | 0.985 | 0.746 | 1.14 | 1.3 | 0.821 | 0.879 | 0.725
N fixed | 0.977 | 1.07 | 1.06 | 1.06 | 1.23 | 1.08 | 1.54 | 1.17 | 1.01
P fixed | 0.32 | 0.67 | 1.06 | 1.7 | 0.95 | 1.87 | 1.51 | 1.56 | 1.28
Q fixed | 1.54 | 1.24 | 1.06 | 1.35 | 1.37 | 1.12 | 1.26 | 1.05 | 0.951
R fixed | 1.35 | 2.26 | 0.966 | 0.912 | 1.09 | 0.569 | 0.762 | 0.957 | 1
V fixed | 0.942 | 0.635 | 0.791 | 0.777 | 0.806 | 0.589 | 0.665 | 0.636 | 0.846
W fixed | 1.05 | 1.09 | 1.28 | 0.923 | 1.07 | 1.5 | 0.997 | 1.09 | 1.24
Y fixed | 0.978 | 1.39 | 1.16 | 0.832 | 1.15 | 1.47 | 1.02 | 0.843 | 0.884
pThr fixed | 0.578 | 0.503 | 0.623 | 0.634 | 0.63 | 0.706 | 0.849 | 0.914 | 0.992
pTyr fixed | 0.455 | 0.311 | 0.519 | 0.452 | 0.862 | 0.525 | 0.707 | 0.616 | 0.73
